Patent EP0910659B1, “ANTIBODIES AGAINST A COMPLEX OF CD4 AND A CHEMOKINE RECEPTOR DOMAIN, AND THEIR USE AGAINST HIV INFECTIONS” (United Biomedical, Inc., priority 1996, dated 1997)
Each block holds one substance with its values, some of them ahead of it.

Experiments:
[1] = target: monoclonal antibody B4; assay: competition rsCD4 ELISA, B4 10 µg/mL, peptide 16.7 µg/mL
[2] = target: monoclonal antibody B4; assay: competition rsCD4 ELISA, B4 10 µg/mL, peptide 1.67 mg/mL
[3] = target: monoclonal antibody B4; assay: competition rsCD4 ELISA, B4 10 µg/mL, peptide 167 µg/mL
[4] = target: monoclonal antibody B4; assay: competition ELISA: soluble rsCD4 0.008 µg/mL preincubated with B4 2 µg/mL; solid-phase rsCD4
[5] = target: monoclonal antibody B4; assay: competition ELISA: soluble rsCD4 5 µg/mL preincubated with B4 2 µg/mL; solid-phase rsCD4
[6] = target: monoclonal antibody B4; assay: soluble rsCD4 50 µg/mL preincubated with biotinylated B4 0.71 µg/mL, then HPB-ALL cells; no inhibition
[7] = target: monoclonal antibody B4; assay: soluble rsCD4 0.05 µg/mL preincubated with biotinylated B4 0.71 µg/mL, then HPB-ALL cells; no inhibition
[8] = target: monoclonal antibody B4; assay: competition ELISA: soluble rsCD4 25 µg/mL preincubated with B4 2 µg/mL; solid-phase rsCD4
[9] = target: monoclonal antibody B4; assay: soluble rsCD4 0.005 µg/mL preincubated with biotinylated B4 0.71 µg/mL, then HPB-ALL cells; no inhibition
[10] = target: monoclonal antibody B4; assay: ELISA inhibition: soluble rsCD4 preincubated with B4 0.1 µg/mL; wells coated with rsCD4/CC-CKR5-D3 (p2047a)
[11] = target: monoclonal antibody B4; assay: competition ELISA: soluble rsCD4 preincubated with B4 2 µg/mL; solid-phase rsCD4
[12] = target: monoclonal antibody B4; assay: competition ELISA: soluble rsCD4 1.0 µg/mL preincubated with B4 2 µg/mL; solid-phase rsCD4
[13] = target: monoclonal antibody B4; assay: competition ELISA: soluble rsCD4 0.2 µg/mL preincubated with B4 2 µg/mL; solid-phase rsCD4
[14] = target: monoclonal antibody B4; assay: soluble rsCD4 0.5 µg/mL preincubated with biotinylated B4 0.71 µg/mL, then HPB-ALL cells; no inhibition
[15] = target: monoclonal antibody B4; assay: competition ELISA: soluble rsCD4 0.04 µg/mL preincubated with B4 2 µg/mL; solid-phase rsCD4
[16] = target: monoclonal antibody B4; assay: ELISA inhibition: soluble rsCD4 preincubated with B4 2 µg/mL; wells coated with rsCD4
[17] = target: monoclonal antibody B4; assay: soluble rsCD4 5 µg/mL preincubated with biotinylated B4 0.71 µg/mL, then HPB-ALL cells; no inhibition
[18] = target: T1, "B4-rsCD4" interaction (Homo sapiens, UniProt P01730); assay: ELISA inhibition assay with CD4 peptides (B4); assay type: binding; settings: B4 10 µg/mL, negative = enhancement; for % inhibition of "B4-rsCD4" interaction, Conc 3: peptide 16.7 µg/mL; for % inhibition of "B4-rsCD4" interaction, Conc 2: peptide 167 µg/mL; for % inhibition of "B4-rsCD4" interaction, Conc 1: peptide 1.67 mg/mL
T1 construct: purchased American Bio-Technologies, Inc. Cambridge, MA
Method: (§1) ELISA Inhibition Assays. […] The preincubated sample and peptide mixture was used directly in the standard rsCD4 ELISA procedure described herein above. Percent inhibition was calculated relative to the appropriate identically diluted monoclonal antibody which was preincubated in the absence of peptide. rsCD4-induced inhibition of antibody binding in the rsCD4 ELISA was similarly measured by preincubating diluted samples, at an endpoint rsCD4 binding dilution, with the competing rsCD4 at the indicated concentration.
(§2) The signal generated at endpoint concentration (e.g. 10 µg/mL for B4 and 20 µg/mL for M2) in an rsCD4 ELISA was employed as a positive control for the competitive peptide binding studies.
Table 5 depicts per cent inhibition results obtained in the rsCD4 ELISA where designed CD4 peptides were serially diluted and individually incubated with 0.1 mL of B4 at 10 µg/mL prior to the binding of B4 to the solid phase-bound rsCD4. Peptides were employed for competitive inhibition at concentrations of 1.67 mg/mL, 167 µg/mL and 16.7 µg/mL (conc 1, conc 2, and conc 3, respectively). […] Enhancement is expressed by negative values for inhibition.

[19] = target: T2, "M2-rsCD4" interaction (Homo sapiens, UniProt P01730); assay: ELISA inhibition assay with CD4 peptides (M2); assay type: binding; settings: M2 20 µg/mL, negative = enhancement; for % inhibition of "M2-rsCD4" interaction, Conc 3: peptide 16.7 µg/mL; for % inhibition of "M2-rsCD4" interaction, Conc 2: peptide 167 µg/mL; for % inhibition of "M2-rsCD4" interaction, Conc 1: peptide 1.67 mg/mL
T2 construct: purchased American Bio-Technologies, Inc. Cambridge, MA
Method: as §1, §2
Table 6 depicts the per cent inhibition results obtained in the rsCD4 ELISA where designed CD4 peptides were serially diluted as in Table 5 and were individually incubated with 0.1 mL of M2 at 20 µg/mL prior to binding M2 to the solid phase-bound rsCD4.

[20] = target: monoclonal antibody B4; assay: competition rsCD4 ELISA, B4 10 µg/mL, peptide 16.7 µg/mL; negative value = enhancement
[21] = target: monoclonal antibody B4; assay: competition rsCD4 ELISA, B4 10 µg/mL, peptide 167 µg/mL; negative value = enhancement
[22] = target: monoclonal antibody B4; assay: competition rsCD4 ELISA, B4 10 µg/mL, peptide 1.67 mg/mL; negative value = enhancement
[23] = target: gp120 of HIV-1 primary field isolate DH-12 (clade B); assay: cell-based or functional assay
[24] = target: gp120 of HIV-1 primary isolate BR014 (clade B); assay: cell-based or functional assay
[25] = target: gp120 of HIV-1 primary isolate 23135 (clade B); assay: cell-based or functional assay
[26] = target: CD4 on the surface of CD4-expressing cells (host cell antigen complex comprising CD4) (human); assay: HPB-ALL cells pre-incubated with PBS, then gp120-FITC 1:200

Substance: p1868a CD4(297-351), cyclic (peptide)
% inhibition of B4-rsCD4 interaction [1]: 19%
% inhibition of B4-rsCD4 interaction [2]: 38%
% inhibition of B4-rsCD4 interaction [3]: 30%

Substance: p1813b HBVTh-GG-CD4(79-88) (peptide)
% inhibition of B4-rsCD4 interaction [1]: 32%
% inhibition of B4-rsCD4 interaction [2]: 93%
% inhibition of B4-rsCD4 interaction [3]: 69%

Substance: CD4 (36-47) [1624a]
% inhibition of "B4-rsCD4" interaction, Conc 3 [18]: -108%
% inhibition of "B4-rsCD4" interaction, Conc 2 [18]: -207%
% inhibition of "B4-rsCD4" interaction, Conc 1 [18]: -215%
% inhibition of "M2-rsCD4" interaction, Conc 3 [19]: -141%
% inhibition of "M2-rsCD4" interaction, Conc 2 [19]: -251%
% inhibition of "M2-rsCD4" interaction, Conc 1 [19]: -261%

Substance: CD4 (297-351*) [1868a]
% inhibition of "B4-rsCD4" interaction, Conc 3 [18]: 19%
% inhibition of "B4-rsCD4" interaction, Conc 2 [18]: 30%
% inhibition of "B4-rsCD4" interaction, Conc 1 [18]: 38%
% inhibition of "M2-rsCD4" interaction, Conc 3 [19]: 17%
% inhibition of "M2-rsCD4" interaction, Conc 2 [19]: 43%
% inhibition of "M2-rsCD4" interaction, Conc 1 [19]: 56%

Substance: CD4 (154-165) [1768a]
% inhibition of "B4-rsCD4" interaction, Conc 3 [18]: 6%
% inhibition of "B4-rsCD4" interaction, Conc 2 [18]: 37%
% inhibition of "B4-rsCD4" interaction, Conc 1 [18]: 82%
% inhibition of "M2-rsCD4" interaction, Conc 3 [19]: 19%
% inhibition of "M2-rsCD4" interaction, Conc 2 [19]: 36%
% inhibition of "M2-rsCD4" interaction, Conc 1 [19]: 86%

Substance: p1768b HBVTh-GG-CD4(154-165) (peptide)
% inhibition of B4-rsCD4 interaction [1]: 11%
% inhibition of B4-rsCD4 interaction [2]: 76%
% inhibition of B4-rsCD4 interaction [3]: 44%

Substance: recombinant human monoclonal antibody IgG1 b12
HIV-1 DH-12 (chimp PBL-grown), PBMC Infection Reduction Assay [23]: 1.38 logs killed
50% Inhbt., HIV-1 primary isolate BR014, MT-2 Microplaque Neutralization Assay [24]: > 50 µg/mL
50% Inhbt., HIV-1 primary isolate 23135, MT-2 Microplaque Neutralization Assay [25]: 12.8 µg/mL

Substance: HIV-1 gp120 (ligand)
% of cells stained by gp120-FITC [26]: > 90%

Continued, values first:

% inhibition of B4-rsCD4 interaction [1]: 6%
% inhibition of B4-rsCD4 interaction [2]: 82%
% inhibition of B4-rsCD4 interaction [3]: 37%
Substance: p1768a CD4(154-165) (peptide)

% Inhibition [4]: -4.7%
A492 nm [4]: 0.711 A492
% Inhibition [5]: 91%
A492 nm [5]: 0.061 A492
% Positive cells (biotinylated B4 staining of HPB-ALL) [6]: > 95%
staining (biotinylated B4 on HPB-ALL) [6]: 3 +
% Positive cells (biotinylated B4 staining of HPB-ALL) [7]: > 95%
staining (biotinylated B4 on HPB-ALL) [7]: 3 +
% Inhibition [8]: 91.9%
A492 nm [8]: 0.055 A492
% Positive cells (biotinylated B4 staining of HPB-ALL) [9]: > 95%
staining (biotinylated B4 on HPB-ALL) [9]: 3 +
IC50 [10]: 0.047 µg/mL
IC50 [11]: 1 µg/mL
% Inhibition [12]: 49.9%
A492 nm [12]: 0.34 A492
% Inhibition [13]: 6.7%
A492 nm [13]: 0.633 A492
% Positive cells (biotinylated B4 staining of HPB-ALL) [14]: > 95%
staining (biotinylated B4 on HPB-ALL) [14]: 3 +
% Inhibition [15]: 6.1%
A492 nm [15]: 0.637 A492
IC50 [16]: 0.72 µg/mL
% Positive cells (biotinylated B4 staining of HPB-ALL) [17]: > 95%
staining (biotinylated B4 on HPB-ALL) [17]: 3 +
Substance: recombinant soluble CD4 (rsCD4) (receptor)

% inhibition of B4-rsCD4 interaction [20]: -108%
% inhibition of B4-rsCD4 interaction [21]: -207%
% inhibition of B4-rsCD4 interaction [22]: -215%
Substance: p1624a (C)CD4(36-47)(C), cyclic (peptide)

% inhibition of "B4-rsCD4" interaction, Conc 3 [18]: 29%
% inhibition of "B4-rsCD4" interaction, Conc 2 [18]: 53%
% inhibition of "B4-rsCD4" interaction, Conc 1 [18]: 64%
% inhibition of "M2-rsCD4" interaction, Conc 3 [19]: 17%
% inhibition of "M2-rsCD4" interaction, Conc 2 [19]: 60%
% inhibition of "M2-rsCD4" interaction, Conc 1 [19]: 74%
Substance: CD4 (1-20) [1816d]

% inhibition of B4-rsCD4 interaction [1]: 29%
% inhibition of B4-rsCD4 interaction [2]: 64%
% inhibition of B4-rsCD4 interaction [3]: 53%
Substance: p1816d CD4(1-20) (peptide)
